T1: Cathepsin G (UniProt P08311 21-244)
T1 sequence (looked up): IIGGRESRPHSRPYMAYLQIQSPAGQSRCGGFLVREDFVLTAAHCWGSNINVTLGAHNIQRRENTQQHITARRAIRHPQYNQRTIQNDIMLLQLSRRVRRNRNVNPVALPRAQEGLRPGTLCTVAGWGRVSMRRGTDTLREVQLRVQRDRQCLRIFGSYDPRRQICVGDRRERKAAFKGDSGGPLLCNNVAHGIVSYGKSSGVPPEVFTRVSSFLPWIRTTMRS


What was measured:
[1] = target: Elastase; assay: cell-based or functional assay
[2] = target: T1, Cathepsin G; assay: cell-based or functional assay

Protease Inhibition (% of WT) [1]	Protease Inhibition (% of WT) [2]	Binder
250 % of WT	350 % of WT	Variant A2M, bait region SEQ ID NO 143 (other) SVSGKPQYMVLVPSLLHTETTEKGCVLLSYLNETVTVSASLESVRGNRSLFTDLEAENDVLHCVAFAVPKSSSNEEVMFLTVQVKGPTQEFKKRTTVMVKNEDSLVFVQTDKSIYKPGQTVKFRVVSMDENFHPLNELIPLVYIQDPKGNRIAQWQSFQLEGGLKQFSFPLSSEPFQGSYKVVVQKKSGGRTEHPFTVEEFVLPKFEVQVTVPKIITILEEEMNVSVCGLYTYGKPVPGHVTVSICRKYSDASDCHGEDSQAFCEKFSGQLNSHGCFYQQVKTKVFQLKRKEYEMKLHTEAQIQEEGTVVELTGRQSSEITRTITKLSFVKVDSHFRQGIPFFGQVRLVDGKGVPIPNKVIFIRGNEANYYSNATTDEHGLVQFSINTTNVMGTSLTVRVNYKDRSPCYGYQWVSEEHEEAHHTAYLVFSPSKSFVHLEPMSHELPCGHTQTVQAHYILNGGTLLGLKKLSFYYLIMAKGGIVRTGTHGLLVKQEDMKGHFSISIPVKSDIAPVARLLIYAVLPTGDVIGDSAKYDVENCLANKVDLSFSPSQSLPASHAHLRVTAAPQSVCALRAVDQSVLLMKPDAELSASSVYNLLPEKDLTGFPGPLNDQDDEDCINRHNVYINGITYTPVSSTNEKDMYSFLEDMGLKAFTNSKIRKPKMCPQLEQYEMHGPIPENFFGVSEDLVVQIEGEGEGEGEAIPMSIPTEPHTKLRKYFPETWIWDLVVVNSAGVAEVGVTVPDTITEWKAGAFCLSEDAGLGISSTASLRAFQPFFVELTMPYSVIRGEAFTLKATVLNYLPKCIRVSVQLEASPAFLAVPVEKEQAPHCICANGRQTVSWAVTPKSLGNVNFTVSAEALESQELCGTEVPSVPEHGRKDTVIKPLLVEPEGLEKETTFNSLLCPSGGEVSEELSLKLPPNVVEESARASVSVLGDILGSAMQNTQNLLQMPYGCGEQNMVLFAPNIYVLDYLNETQQLTPEIKSKAIGYLNTGYQRQLNYKHYDGSYSTFGERYGRNQGNTWLTAFVLKTFAQARAYIFIDEAHITQALIWLSQRQKDNGCFRSSGSLLNNAIKGGVEDEVTLSAYITIALLEIPLTVTHPVVRNALFCLESAWKTAQEGDHGSHVYTKALLAYAFALAGNQDKRKEVLKSLNEEAVKKDNSVHWERPQKPKAPVGHFYEPQAPSAEVEMTSYVLLAYLTAQPAPTSEDLTSATNIVKWITKQQNAQGGFSSTQDTVVALHALSKYGAATFTRTGKAAQVTIQSSGTFSSKFQVDNNNRLLLQQVSLPELPGEYSMKVTGEGCVYLQTSLKYNILPEKEEFPFALGVQTLPQTCDEPKAHTSFQISLSVSYTGSRSASNMAIVDVKMVSGFIPLKPTVKMLERSNHVSRTEVSSNHVLIYLDKVSNQTLSLFFTVLQDVPVRDLKPAIVKVYDYYETDEFAIAEYNAPCSKDLGNADYKDDDDKGASHHHHHH
75 % of WT	250 % of WT	Variant A2M, bait region SEQ ID NO 124 (other) SVSGKPQYMVLVPSLLHTETTEKGCVLLSYLNETVTVSASLESVRGNRSLFTDLEAENDVLHCVAFAVPKSSSNEEVMFLTVQVKGPTQEFKKRTTVMVKNEDSLVFVQTDKSIYKPGQTVKFRVVSMDENFHPLNELIPLVYIQDPKGNRIAQWQSFQLEGGLKQFSFPLSSEPFQGSYKVVVQKKSGGRTEHPFTVEEFVLPKFEVQVTVPKIITILEEEMNVSVCGLYTYGKPVPGHVTVSICRKYSDASDCHGEDSQAFCEKFSGQLNSHGCFYQQVKTKVFQLKRKEYEMKLHTEAQIQEEGTVVELTGRQSSEITRTITKLSFVKVDSHFRQGIPFFGQVRLVDGKGVPIPNKVIFIRGNEANYYSNATTDEHGLVQFSINTTNVMGTSLTVRVNYKDRSPCYGYQWVSEEHEEAHHTAYLVFSPSKSFVHLEPMSHELPCGHTQTVQAHYILNGGTLLGLKKLSFYYLIMAKGGIVRTGTHGLLVKQEDMKGHFSISIPVKSDIAPVARLLIYAVLPTGDVIGDSAKYDVENCLANKVDLSFSPSQSLPASHAHLRVTAAPQSVCALRAVDQSVLLMKPDAELSASSVYNLLPEKDLTGFPGPLNDQDDEDCINRHNVYINGITYTPVSSTNEKDMYSFLEDMGLKAFTNSKIRKPKMCPQLEQYEMHGPKEEEGLGSSELEGRGSEAIPMSIPTIPENFFGVVEEPHTKLRKYFPETWIWDLVVVNSAGVAEVGVTVPDTITEWKAGAFCLSEDAGLGISSTASLRAFQPFFVELTMPYSVIRGEAFTLKATVLNYLPKCIRVSVQLEASPAFLAVPVEKEQAPHCICANGRQTVSWAVTPKSLGNVNFTVSAEALESQELCGTEVPSVPEHGRKDTVIKPLLVEPEGLEKETTFNSLLCPSGGEVSEELSLKLPPNVVEESARASVSVLGDILGSAMQNTQNLLQMPYGCGEQNMVLFAPNIYVLDYLNETQQLTPEIKSKAIGYLNTGYQRQLNYKHYDGSYSTFGERYGRNQGNTWLTAFVLKTFAQARAYIFIDEAHITQALIWLSQRQKDNGCFRSSGSLLNNAIKGGVEDEVTLSAYITIALLEIPLTVTHPVVRNALFCLESAWKTAQEGDHGSHVYTKALLAYAFALAGNQDKRKEVLKSLNEEAVKKDNSVHWERPQKPKAPVGHFYEPQAPSAEVEMTSYVLLAYLTAQPAPTSEDLTSATNIVKWITKQQNAQGGFSSTQDTVVALHALSKYGAATFTRTGKAAQVTIQSSGTFSSKFQVDNNNRLLLQQVSLPELPGEYSMKVTGEGCVYLQTSLKYNILPEKEEFPFALGVQTLPQTCDEPKAHTSFQISLSVSYTGSRSASNMAIVDVKMVSGFIPLKPTVKMLERSNHVSRTEVSSNHVLIYLDKVSNQTLSLFFTVLQDVPVRDLKPAIVKVYDYYETDEFAIAEYNAPCSKDLGNADYKDDDDKGASHHHHHH
75 % of WT	100 % of WT	Variant A2M, bait region SEQ ID NO 141 (other) SVSGKPQYMVLVPSLLHTETTEKGCVLLSYLNETVTVSASLESVRGNRSLFTDLEAENDVLHCVAFAVPKSSSNEEVMFLTVQVKGPTQEFKKRTTVMVKNEDSLVFVQTDKSIYKPGQTVKFRVVSMDENFHPLNELIPLVYIQDPKGNRIAQWQSFQLEGGLKQFSFPLSSEPFQGSYKVVVQKKSGGRTEHPFTVEEFVLPKFEVQVTVPKIITILEEEMNVSVCGLYTYGKPVPGHVTVSICRKYSDASDCHGEDSQAFCEKFSGQLNSHGCFYQQVKTKVFQLKRKEYEMKLHTEAQIQEEGTVVELTGRQSSEITRTITKLSFVKVDSHFRQGIPFFGQVRLVDGKGVPIPNKVIFIRGNEANYYSNATTDEHGLVQFSINTTNVMGTSLTVRVNYKDRSPCYGYQWVSEEHEEAHHTAYLVFSPSKSFVHLEPMSHELPCGHTQTVQAHYILNGGTLLGLKKLSFYYLIMAKGGIVRTGTHGLLVKQEDMKGHFSISIPVKSDIAPVARLLIYAVLPTGDVIGDSAKYDVENCLANKVDLSFSPSQSLPASHAHLRVTAAPQSVCALRAVDQSVLLMKPDAELSASSVYNLLPEKDLTGFPGPLNDQDDEDCINRHNVYINGITYTPVSSTNEKDMYSFLEDMGLKAFTNSKIRKPKMCPQLEQYEMHGPEAIPMSIPTSELEGRGSIPENFFGVEGEGEGEGEPHTKLRKYFPETWIWDLVVVNSAGVAEVGVTVPDTITEWKAGAFCLSEDAGLGISSTASLRAFQPFFVELTMPYSVIRGEAFTLKATVLNYLPKCIRVSVQLEASPAFLAVPVEKEQAPHCICANGRQTVSWAVTPKSLGNVNFTVSAEALESQELCGTEVPSVPEHGRKDTVIKPLLVEPEGLEKETTFNSLLCPSGGEVSEELSLKLPPNVVEESARASVSVLGDILGSAMQNTQNLLQMPYGCGEQNMVLFAPNIYVLDYLNETQQLTPEIKSKAIGYLNTGYQRQLNYKHYDGSYSTFGERYGRNQGNTWLTAFVLKTFAQARAYIFIDEAHITQALIWLSQRQKDNGCFRSSGSLLNNAIKGGVEDEVTLSAYITIALLEIPLTVTHPVVRNALFCLESAWKTAQEGDHGSHVYTKALLAYAFALAGNQDKRKEVLKSLNEEAVKKDNSVHWERPQKPKAPVGHFYEPQAPSAEVEMTSYVLLAYLTAQPAPTSEDLTSATNIVKWITKQQNAQGGFSSTQDTVVALHALSKYGAATFTRTGKAAQVTIQSSGTFSSKFQVDNNNRLLLQQVSLPELPGEYSMKVTGEGCVYLQTSLKYNILPEKEEFPFALGVQTLPQTCDEPKAHTSFQISLSVSYTGSRSASNMAIVDVKMVSGFIPLKPTVKMLERSNHVSRTEVSSNHVLIYLDKVSNQTLSLFFTVLQDVPVRDLKPAIVKVYDYYETDEFAIAEYNAPCSKDLGNADYKDDDDKGASHHHHHH
100 % of WT	450 % of WT	Variant A2M, bait region SEQ ID NO 137 (other) SVSGKPQYMVLVPSLLHTETTEKGCVLLSYLNETVTVSASLESVRGNRSLFTDLEAENDVLHCVAFAVPKSSSNEEVMFLTVQVKGPTQEFKKRTTVMVKNEDSLVFVQTDKSIYKPGQTVKFRVVSMDENFHPLNELIPLVYIQDPKGNRIAQWQSFQLEGGLKQFSFPLSSEPFQGSYKVVVQKKSGGRTEHPFTVEEFVLPKFEVQVTVPKIITILEEEMNVSVCGLYTYGKPVPGHVTVSICRKYSDASDCHGEDSQAFCEKFSGQLNSHGCFYQQVKTKVFQLKRKEYEMKLHTEAQIQEEGTVVELTGRQSSEITRTITKLSFVKVDSHFRQGIPFFGQVRLVDGKGVPIPNKVIFIRGNEANYYSNATTDEHGLVQFSINTTNVMGTSLTVRVNYKDRSPCYGYQWVSEEHEEAHHTAYLVFSPSKSFVHLEPMSHELPCGHTQTVQAHYILNGGTLLGLKKLSFYYLIMAKGGIVRTGTHGLLVKQEDMKGHFSISIPVKSDIAPVARLLIYAVLPTGDVIGDSAKYDVENCLANKVDLSFSPSQSLPASHAHLRVTAAPQSVCALRAVDQSVLLMKPDAELSASSVYNLLPEKDLTGFPGPLNDQDDEDCINRHNVYINGITYTPVSSTNEKDMYSFLEDMGLKAFTNSKIRKPKMCPQLEQYEMHGPSEDLVVQIKEEEGLGSIPENFFGVSELEGRGSVEEPHTKLRKYFPETWIWDLVVVNSAGVAEVGVTVPDTITEWKAGAFCLSEDAGLGISSTASLRAFQPFFVELTMPYSVIRGEAFTLKATVLNYLPKCIRVSVQLEASPAFLAVPVEKEQAPHCICANGRQTVSWAVTPKSLGNVNFTVSAEALESQELCGTEVPSVPEHGRKDTVIKPLLVEPEGLEKETTFNSLLCPSGGEVSEELSLKLPPNVVEESARASVSVLGDILGSAMQNTQNLLQMPYGCGEQNMVLFAPNIYVLDYLNETQQLTPEIKSKAIGYLNTGYQRQLNYKHYDGSYSTFGERYGRNQGNTWLTAFVLKTFAQARAYIFIDEAHITQALIWLSQRQKDNGCFRSSGSLLNNAIKGGVEDEVTLSAYITIALLEIPLTVTHPVVRNALFCLESAWKTAQEGDHGSHVYTKALLAYAFALAGNQDKRKEVLKSLNEEAVKKDNSVHWERPQKPKAPVGHFYEPQAPSAEVEMTSYVLLAYLTAQPAPTSEDLTSATNIVKWITKQQNAQGGFSSTQDTVVALHALSKYGAATFTRTGKAAQVTIQSSGTFSSKFQVDNNNRLLLQQVSLPELPGEYSMKVTGEGCVYLQTSLKYNILPEKEEFPFALGVQTLPQTCDEPKAHTSFQISLSVSYTGSRSASNMAIVDVKMVSGFIPLKPTVKMLERSNHVSRTEVSSNHVLIYLDKVSNQTLSLFFTVLQDVPVRDLKPAIVKVYDYYETDEFAIAEYNAPCSKDLGNADYKDDDDKGASHHHHHH

— patent US20230250154A1 (CYTONICS, published 2023)
